Ends that are not written are not given here.

Format in all cases: physicochemical
The nature of series [1]: Transmission electron microscopy of aged peptides (Example 10). To be noted: for fibrilar supramolecular ultrastructures by electron microscopy: peptides derived from amyloid proteins, mild conditions. On the procedure:
Transmission Electron Microscopy—A 10 μL sample of 8 mg/ml peptide solution in 10 mM Tris buffer, pH 7.2 aged for at least one day was placed on 400-mesh copper grids (SPI supplies, West Chester Pa.) covered by carbon-stabilized Formvar film. Following 1 minute, excess fluid was removed, and the grid was then negatively stained with 2% uranyl acetate in water for another two minutes. Samples were viewed in a JEOL 1200EX electron microscope operating at 80 kV.

Series [2] is described as follows: Congo Red staining and birefringence (Example 9). The protocol:
Congo Red Staining and Birefringence—A 10 μL suspension of 8 mg/ml peptide solution in 10 mM Tris buffer, pH 7.2 aged for at least one day was allowed to dry overnight on a glass microscope slide. Staining was performed by the addition of a 10 μL suspension of saturated Congo Red (CR) and NaCl in 80% ethanol (v/v) solution as previously described [Puchtler (1966) Supra]. The solution was filtered via 0.45 μm filter. The slide was then dried for few hours. Birefringence was determined with a SZX-12 Stereoscope (Olympus, Hamburg, Germany) equipped with cross polarizers.

Series [3] is described as follows: Kinetic aggregation assay, turbidity at 405 nm (Example 8). The protocol:
Kinetic Aggregation Assay—freshly prepared peptide stock solutions were generated by dissolving the lyophilized form of the peptides in dimethyl sulfoxide (DMSO) at a concentration of 100 mg/ml. To avoid any pre-aggregation, fresh stock solutions were prepared for each experiment. […] Turbidity data were collected at 405 nm. Buffer solution containing the same amount of DMSO as the tested samples was used as blank, which was subtracted from the results. Turbidity was measured continuously at room temperature using THERMOmax ELISA plate reader (Molecular Devices, Sunnyvale Calif.).

The nature of series [4]: Fourier transform infrared spectroscopy of aged peptides (Example 11). The following applies: for secondary structure by FT-IR (amide I): Calcitonin-derived peptides; for secondary structure by FT-IR: hIAPP peptide fragments, aged solutions from turbidity assay. The protocol:
Fourier Transform Infrared Spectroscopy—Infrared spectra were recorded using a Nicolet Nexus 470 FT-IR spectrometer with a DTGS detector. Samples of aged peptide solutions, taken from turbidity assay, were suspended on a CaF2 widows (Sigma)-plate and dried by vacuum. The peptide deposits were resuspended with […] and subsequently dried to form thin films. The resuspension procedure was repeated twice to ensure maximal hydrogen to deuterium exchange. The measurements were taken using a 4 cm^−1 resolution and 2000 scans averaging. The transmittance minima values were determined by the OMNIC analysis program (Nicolet).

[5] abbreviates: Medin-derived peptides, aged 4 days.
The mark [6] stands for this setting: Calcitonin-derived peptides, 0.02M NaCl, 0.01M Tris pH 7.2, aged 2 days.
The mark [7] stands for this setting: hIAPP peptide fragments, 8 mg/ml aged at least one day.
[8] abbreviates: hIAPP peptide fragments, 8 mg/ml, 8% DMSO, monitored two hours.

As to LFNQTG, the “fibrilar supramolecular ultrastructures by electron microscopy” value (shortened to “fibrilar supramolecular ultrastructures”) in series [1] was “filamentous structures were observed”.

Regarding “NFGSVQFV [published amyloidogenic octapeptide of Medin, reference compound]”, the “Congo Red birefringence” value in series [2] (Medin-derived peptides) is “significant birefringence”. In series [1] (setting [5]), the “structures by electron microscopy” value is “Fibrillar structures were clearly seen”. The “turbidity at 405 nm” value in series [3] (Medin-derived peptides) was “too fast to be measured”.

On to NH2-GSVQ -COOH (H-GSVQ-OH), for which, in series [2] (Medin-derived peptides), the “Congo Red birefringence” value was “unexpected high level of birefringence”. In addition, the “structures by electron microscopy” value in series [1] (setting [5]) was “no fibrillar structures could be found”.

With NH2-DFNKF-COOH (H-DFNKF-OH), the “Congo Red birefringence” value in series [2] (Calcitonin-derived peptides) is “clear and strong”. Further, in series [4], the “secondary structure by FT-IR (amide I)” value is given as “consistent with anti-parallel β-sheet structure”. In addition, the “structures by electron microscopy” value in series [1] (setting [6]) is “clearly seen with high frequency”.

As for NFLVH, the “Congo Red birefringence” value in series [2] (setting [7]) was “powerful smear of birefringence at the edges of the sample”. Further, the “secondary structure by FT-IR” value in series [4] is given as “indicative of β-sheet”. In addition, the “structures by electron microscopy” value in series [1] (setting [7]) is “thin and short”. In series [3] (setting [8]), the “turbidity at 405 nm” value is “almost no turbidity at all”.

SGIFTN (also: EG modification): in series [1], the “fibrilar supramolecular ultrastructures” value was “filamentous structures were observed”.

As for SFNNG (also: EG modification), in series [1], the “fibrilar supramolecular ultrastructures” value is “filamentous structures were observed”.

With SNFLN (also: EG modification), the “fibrilar supramolecular ultrastructures” value in series [1] is recorded as “filamentous structures were observed”.

Consider TLIFGG (also: EG modification), for which the “fibrilar supramolecular ultrastructures” value in series [1] is given as “filamentous structures were observed”.

As to RDFLDR, the “fibrilar supramolecular ultrastructures” value in series [1] is “filamentous structures were observed”.

As for NFLVHSSNN, in series [2] (setting [7]), the “Congo Red birefringence” value was “weaker characteristic birefringence”. Further, the “secondary structure by FT-IR” value in series [4] is reported as “large β-sheet content”. Also, the “structures by electron microscopy” value in series [1] (setting [7]) was “long thin coiling filaments”. The “turbidity at 405 nm” value in series [3] (setting [8]) is “very low turbidity”.

Take GLVFVS: the “fibrilar supramolecular ultrastructures” value in series [1] is listed as “filamentous structures were observed”.

NH2- FNKF-COOH (H-FNKF-OH): the “Congo Red birefringence” value in series [2] (Calcitonin-derived peptides) is “lower but significant”. Also, the “secondary structure by FT-IR (amide I)” value in series [4] is recorded as “typical of a non-ordered structure”. In addition, the “structures by electron microscopy” value in series [1] (setting [6]) is given as “only amorphous aggregates could be found”.

Consider NH2-FGSVQ -COOH (H-FGSVQ-OH), for which the “Congo Red birefringence” value in series [2] (Medin-derived peptides) is “no birefringence”. Besides, the “structures by electron microscopy” value in series [1] (setting [5]) was “somewhat fibrillar and ordered structure could be seen”. Further, in series [3] (Medin-derived peptides), the “turbidity at 405 nm” value is reported as “gradual increase in turbidity”.

For the substance NH2-DFN -COOH (H-Asp-Phe-Asn-OH), in series [2] (Calcitonin-derived peptides), the “Congo Red birefringence” value is “lower but significant”. In addition, in series [4], the “secondary structure by FT-IR (amide I)” value was “consistent with a mixture of β-sheet and random structures”. The “structures by electron microscopy” value in series [1] (setting [6]) is recorded as “more ordered structures”.

For the substance NH2-FGSV -COOH (H-FGSV-OH), the “Congo Red birefringence” value in series [2] (Medin-derived peptides) is on record as “no birefringence”. For the same substance, in series [1] (setting [5]), the “structures by electron microscopy” value was “no fibrillar structures could be found”. For the same substance, the “turbidity at 405 nm” value in series [3] (Medin-derived peptides) is given as “gradual increase in turbidity”.

As to RALDFA, the “fibrilar supramolecular ultrastructures” value in series [1] was “filamentous structures were observed”.

Take FLVHSS: in series [2] (setting [7]), the “Congo Red birefringence” value is on record as “typical birefringence”. Further, the “secondary structure by FT-IR” value in series [4] is “major minimum at 1626”. Also, the “structures by electron microscopy” value in series [1] (setting [7]) was “large broad ribbon-like fibrils”. Also, the “turbidity at 405 nm” value in series [3] (setting [8]) was “high turbidity”.

On to GTFQIN, for which, in series [1], the “fibrilar supramolecular ultrastructures” value is listed as “filamentous structures were observed”.

As to NH2-DFNK -COOH (H-DFNK-OH), the “Congo Red birefringence” value in series [2] (Calcitonin-derived peptides) is “lower level of birefringence”. For the same substance, the “secondary structure by FT-IR (amide I)” value in series [4] is “less typical of a β-sheet structure”. In series [1] (setting [6]), the “structures by electron microscopy” value is listed as “also formed fibrillar structures”.

In the case of FLVH, the “Congo Red birefringence” value in series [2] (setting [7]) is given as “no birefringence”. The “secondary structure by FT-IR” value in series [4] is recorded as “typical to random coil structure”. In addition, the “structures by electron microscopy” value in series [1] (setting [7]) was “amorphous aggregates”. Moreover, the “amyloid fibril formation (EM, CR staining, FT-IR)” value in series [1] (incubated for two months) is reported as “no evidence for amyloid fibril formation was detected”. In series [3] (setting [8]), the “turbidity at 405 nm” value is recorded as “almost no turbidity at all”.

With LQNFTL, the “fibrilar supramolecular ultrastructures” value in series [1] is “filamentous structures were observed”.

Turning to ERGFF, in series [1], the “fibrilar supramolecular ultrastructures” value is given as “filamentous structures were observed”.

With NH2-NFGSV -COOH (H-NFGSV-OH), the “Congo Red birefringence” value in series [2] (Medin-derived peptides) is “very low degree of birefringence”. For the same substance, the “structures by electron microscopy” value in series [1] (setting [5]) is reported as “network of fibrous structures”. Further, the “turbidity at 405 nm” value in series [3] (Medin-derived peptides) was “highest degree of aggregation within minutes of incubation”.

As for FENKF, in series [1], the “fibrilar supramolecular ultrastructures” value is on record as “filamentous structures were observed”.

As to NH2-NFGSVQ -COOH (H-NFGSVQ-OH), the “Congo Red birefringence” value in series [2] (Medin-derived peptides) is “characteristic bright and strong green-gold birefringence”. Moreover, in series [1] (setting [5]), the “structures by electron microscopy” value is “Fibrillar structures were clearly seen”. In series [3] (Medin-derived peptides), the “turbidity at 405 nm” value is given as “gradual increase in turbidity”.

NFGAILSS: in series [1] (hIAPP 22-29 and analogues, five days of incubation), the “structures by electron microscopy” value is given as “well-ordered fibrils”. Further, the “turbidity at 405 nm” value in series [3] (hIAPP 22-29 and hydrophobic analogues, up to 24 hours) was “significant increase in turbidity”.

For FLVHS, the “Congo Red birefringence” value in series [2] (setting [7]) was “typical birefringence”. Moreover, the “structures by electron microscopy” value in series [1] (setting [7]) was “large broad ribbon-like fibrils”. Besides, the “turbidity at 405 nm” value in series [3] (setting [8]) was “high turbidity”.

As to NFLVHSS, the “Congo Red birefringence” value in series [2] (setting [7]) is given as “typical birefringence”. Besides, the “secondary structure by FT-IR” value in series [4] is recorded as “classical for an anti-parallel β-sheet structure”. Besides, the “structures by electron microscopy” value in series [1] (setting [7]) was “large broad ribbon-like fibrils”. Also, the “turbidity at 405 nm” value in series [3] (setting [8]) is recorded as “high turbidity”.

For H-NAGSVQ-OH, the “Congo Red birefringence” value in series [2] (Medin-derived peptides) is listed as “some degree of birefringence could still be detected”. Also, the “structures by electron microscopy” value in series [1] (setting [5]) is “no clear fibrillar structures could be detected”. For the same substance, the “turbidity at 405 nm” value in series [3] (Medin-derived peptides) was “significantly lower turbidity”.

With SFFSFL (also: EG modification), the “fibrilar supramolecular ultrastructures” value in series [1] is “filamentous structures were observed”.
